In patent US20110059077A1 (JURIDICAL FDN THE CHEMO SERO THERAPEUTIC RES INST, published 2011):
Numbering of substitutions follows the chain as printed. Numbers in names are those of the source.

B1: RY9A2v11(M34L)012 antibody (antibody, human IgG1, kappa, V domains shown)
VH: QVQLVQSGAEVKKPGSSVKMSCKASGYTLTTYWLHWVKQRPGQGLEWIGYINPSSGYTEYNQKFQGRVTITADKSTSTAYMELSSLRSEDTAVYYCAIYGDYGDFYFDYWGQGTTVTVSS
VL: DIQMTQSPSSLSASVGDRVTITCRASQSVNTDVAWYQQKPGKAPKLLIYFASNHYTGVPSRFSGSGSGTDFTFTISSLQPEDIATYYCRQDYSSPFTFGGGTKVEIKR
B2: RY9A2v12(M34L)012 antibody (antibody, human IgG1, kappa, V domains shown)
VH: B1 VH with M20V, K38R, R40A, I48M
VL: B1 VL
B3: RY9A2v5(IAW)01 antibody (antibody, human IgG1, kappa, V domains shown)
VH: B1 VH with L34I, Q65K, G66D, D104A, F105W
VL: B1 VL with R24K
B4: mouse anti-human α9 integrin antibody Y9A2 (antibody, V domains shown)
VH: QVQLQQSGAELANPGASVKMSCKASGYTLTTYWMHWVKQRPGQGLEWIGYINPSSGYTEYNQKFKDKATLTADKSSSTAYMQLTSLTSEDSAVYYCAIYGDYGDFYFDYWGQGTTLTVSS
VL: SIVMTQTPKFLLVSAGDRVTMTCKASQSVNTDVAWFQQKPGQSPKLLIYFASNHYTGVPDRFTGSGYGTDFTFTISTVQAEDLAIYFCRQDYSSPFTFGGGTKLEIKR
B5: RY9A2v501 antibody (antibody, V domains shown)
VH: B1 VH with L34M, Q65K, G66D
VL: B1 VL with R24K
B6: RY9A2v801 antibody (antibody, V domains shown)
VH: B1 VH with M20V, L34M, K38R, R40A, I48M, Q65K, G66D
VL: B1 VL with R24K

Target: T1, human α9 integrin molecule expressed on SW480 cells (human, UniProt Q13797 30-1035; P05556 21-798)
Assay: cell-based or functional assay

T1 sequence (Q13797 30-1035, form in doubt, chain 1 of 2): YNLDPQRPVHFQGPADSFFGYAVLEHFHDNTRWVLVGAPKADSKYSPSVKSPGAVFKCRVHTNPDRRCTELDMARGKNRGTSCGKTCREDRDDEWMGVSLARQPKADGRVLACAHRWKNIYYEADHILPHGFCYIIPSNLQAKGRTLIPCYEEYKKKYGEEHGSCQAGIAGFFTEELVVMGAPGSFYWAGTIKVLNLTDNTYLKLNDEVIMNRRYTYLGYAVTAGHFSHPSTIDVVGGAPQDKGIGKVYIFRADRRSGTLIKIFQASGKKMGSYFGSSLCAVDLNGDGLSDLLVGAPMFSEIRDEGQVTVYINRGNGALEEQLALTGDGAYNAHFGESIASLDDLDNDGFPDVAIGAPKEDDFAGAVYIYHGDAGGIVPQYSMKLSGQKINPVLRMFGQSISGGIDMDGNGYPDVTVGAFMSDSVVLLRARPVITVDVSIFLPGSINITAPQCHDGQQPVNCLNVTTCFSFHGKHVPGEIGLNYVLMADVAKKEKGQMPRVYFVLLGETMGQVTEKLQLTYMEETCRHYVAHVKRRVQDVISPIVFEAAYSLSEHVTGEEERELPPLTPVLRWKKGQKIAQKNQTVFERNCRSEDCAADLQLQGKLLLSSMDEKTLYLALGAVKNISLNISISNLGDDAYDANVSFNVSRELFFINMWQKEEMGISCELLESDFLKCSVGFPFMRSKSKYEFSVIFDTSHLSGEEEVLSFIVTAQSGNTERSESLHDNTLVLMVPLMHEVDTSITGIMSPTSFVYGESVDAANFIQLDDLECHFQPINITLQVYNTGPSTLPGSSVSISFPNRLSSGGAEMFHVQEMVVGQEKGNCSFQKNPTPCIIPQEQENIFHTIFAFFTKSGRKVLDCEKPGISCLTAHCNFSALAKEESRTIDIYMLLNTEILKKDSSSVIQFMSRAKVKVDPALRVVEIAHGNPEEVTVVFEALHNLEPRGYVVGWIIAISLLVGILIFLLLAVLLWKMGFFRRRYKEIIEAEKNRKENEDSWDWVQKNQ
T1 sequence (P05556 21-798, form in doubt, chain 2 of 2): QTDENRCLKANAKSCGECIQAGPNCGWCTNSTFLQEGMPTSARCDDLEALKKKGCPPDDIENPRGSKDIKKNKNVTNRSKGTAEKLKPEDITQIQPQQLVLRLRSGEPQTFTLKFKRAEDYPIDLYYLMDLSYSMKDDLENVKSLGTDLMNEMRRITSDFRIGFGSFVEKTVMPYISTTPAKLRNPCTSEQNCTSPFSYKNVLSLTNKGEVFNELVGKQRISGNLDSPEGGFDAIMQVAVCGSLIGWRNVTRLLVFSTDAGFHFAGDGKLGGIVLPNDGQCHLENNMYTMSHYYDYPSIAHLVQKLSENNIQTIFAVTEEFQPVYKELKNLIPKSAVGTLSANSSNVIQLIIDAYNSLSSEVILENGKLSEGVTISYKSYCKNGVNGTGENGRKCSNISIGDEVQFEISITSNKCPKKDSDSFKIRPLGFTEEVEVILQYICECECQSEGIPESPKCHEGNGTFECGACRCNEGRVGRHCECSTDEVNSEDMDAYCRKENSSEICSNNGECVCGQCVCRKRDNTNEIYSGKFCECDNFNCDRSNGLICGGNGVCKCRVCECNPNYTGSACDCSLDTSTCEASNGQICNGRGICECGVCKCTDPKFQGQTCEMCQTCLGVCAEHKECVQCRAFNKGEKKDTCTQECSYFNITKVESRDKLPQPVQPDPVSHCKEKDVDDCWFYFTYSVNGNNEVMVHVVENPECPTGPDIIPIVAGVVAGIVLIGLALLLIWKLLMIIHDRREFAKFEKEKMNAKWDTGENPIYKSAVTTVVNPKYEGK

Compared with B1, B2 is lower in “specific activity (IC50 relative to mouse Y9A2 = 1), cell adhesion inhibition to human Tenascin C-RAA” value: 0.35 ratio to IC50 of mouse Y9A2 for the first, 0.26 ratio to IC50 of mouse Y9A2 for the second.

First: B3
Second: B4
The “specific activity (IC50 relative to mouse Y9A2 = 1), cell adhesion inhibition to human Tenascin C-RAA” value of the first is lower: 0.44 ratio to IC50 of mouse Y9A2 for the first, 1 ratio to IC50 of mouse Y9A2 for the second.

Compared with B1, B2 is higher in “specific activity (IC50 relative to mouse Y9A2 = 1), cell adhesion inhibition to human VCAM-1” value: 0.44 ratio to IC50 of mouse Y9A2 for the first, 0.95 ratio to IC50 of mouse Y9A2 for the second.

B3 and B4 are the same in “specific activity (IC50 relative to mouse Y9A2 = 1), cell adhesion inhibition to human VCAM-1” value: 1 ratio to IC50 of mouse Y9A2 for the first, 1 ratio to IC50 of mouse Y9A2 for the second.

Target: T1, human α9 integrin molecule expressed on …
Assay: cell-based or functional assay
Remark: another data set of the same source

Compared with B5, B6 is higher in “specific activity (IC50 relative to mouse Y9A2 = 1), cell adhesion inhibition, SW480/hα9 cells to nOPN-RAA” value: 0.77 ratio to IC50 of mouse Y9A2 for the first, 0.82 ratio to IC50 of mouse Y9A2 for the second.

For B4, the “specific activity (IC50 relative to mouse Y9A2 = 1), cell adhesion inhibition, SW480/hα9 cells to nOPN-RAA” value was 1 ratio to IC50 of mouse Y9A2.

Target: T1, human α9 integrin molecule expressed on …
Assay: cell-based or functional assay
Remark: another data set of the same source

B1 and B2 are the same in “specific activity (IC50 relative to mouse Y9A2 = 1), cell adhesion inhibition, SW480/hα9 cells to nOPN-RAA” value: 0.23 ratio to IC50 of mouse Y9A2 for the first, 0.23 ratio to IC50 of mouse Y9A2 for the second.

First: B3
Second: B4
The “specific activity (IC50 relative to mouse Y9A2 = 1), cell adhesion inhibition, SW480/hα9 cells to nOPN-RAA” value of the first is lower: 0.29 ratio to IC50 of mouse Y9A2 for the first, 1 ratio to IC50 of mouse Y9A2 for the second.
